Results from patent US20210063414A1, “METHODS FOR PREVENTING AND/OR TREATING BONE LOSS CONDITIONS BY MODULATING IRISIN” (Dana-Farber Cancer Institute, Inc., priority 2018, published 2021).

Tests used:
Experiment in all cases: Crosslinking/co-immunoprecipitation/mass spectrometry (TMT quantitative proteomics) to identify irisin receptors
Format in all cases: binding
[1] = target: T1, MLO-Y4 cell surface proteins (Mus musculus, UniProt Q3U1J4); details: co-precipitated protein Ddb1 (DDB1_MOUSE)
T1 construct: endogenous in cells; host or cells: MLO-Y4
Summary of the method: (§1)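 Relative protein abundance came from 6-plex TMT MS3 quantitation on an Orbitrap Fusion Lumos, after in-gel trypsin digestion of Coomassie-stained SDS-PAGE lanes. Input was a Ni-NTA pulldown (250 mM imidazole elution) of lysates from murine MLO-Y4 cells. These cells were treated on ice with His-tagged irisin or adipsin (10 nM, 20 min) in serum-free medium, then crosslinked with 1.5 mM DTSSP for 30 min.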

[2] = target: T2, MLO-Y4 cell surface proteins (Mus musculus, UniProt Q791V5); details: co-precipitated protein Mteh2 (MTCH2_MOUSE)
T2 construct: endogenous in cells; host or cells: MLO-Y4
T2 sequence (Q791V5 1-303): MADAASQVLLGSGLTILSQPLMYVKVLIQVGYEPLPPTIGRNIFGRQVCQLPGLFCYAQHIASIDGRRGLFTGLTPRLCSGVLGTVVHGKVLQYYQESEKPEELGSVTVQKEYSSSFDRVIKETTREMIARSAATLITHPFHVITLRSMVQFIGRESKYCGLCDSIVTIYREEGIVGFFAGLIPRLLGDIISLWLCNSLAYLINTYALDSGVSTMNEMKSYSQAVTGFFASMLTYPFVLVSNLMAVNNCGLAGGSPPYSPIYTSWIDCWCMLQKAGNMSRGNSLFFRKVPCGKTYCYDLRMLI
Summary of the method: as §1

[3] = target: T3, MLO-Y4 cell surface proteins (Mus musculus, UniProt P56567); details: co-precipitated protein Csta (CYTA_MOUSE)
T3 construct: endogenous in cells; host or cells: MLO-Y4
T3 sequence (P56567 1-97): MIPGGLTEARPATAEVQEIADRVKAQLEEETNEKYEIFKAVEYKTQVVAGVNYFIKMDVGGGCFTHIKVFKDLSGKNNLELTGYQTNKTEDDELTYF
Summary of the method: as §1

[4] = target: T4, MLO-Y4 cell surface proteins (Mus musculus, UniProt Q8JZN5); details: co-precipitated protein Acad9 (ACAD9_MOUSE)
T4 construct: endogenous in cells; host or cells: MLO-Y4
T4 sequence (Q8JZN5 42-625): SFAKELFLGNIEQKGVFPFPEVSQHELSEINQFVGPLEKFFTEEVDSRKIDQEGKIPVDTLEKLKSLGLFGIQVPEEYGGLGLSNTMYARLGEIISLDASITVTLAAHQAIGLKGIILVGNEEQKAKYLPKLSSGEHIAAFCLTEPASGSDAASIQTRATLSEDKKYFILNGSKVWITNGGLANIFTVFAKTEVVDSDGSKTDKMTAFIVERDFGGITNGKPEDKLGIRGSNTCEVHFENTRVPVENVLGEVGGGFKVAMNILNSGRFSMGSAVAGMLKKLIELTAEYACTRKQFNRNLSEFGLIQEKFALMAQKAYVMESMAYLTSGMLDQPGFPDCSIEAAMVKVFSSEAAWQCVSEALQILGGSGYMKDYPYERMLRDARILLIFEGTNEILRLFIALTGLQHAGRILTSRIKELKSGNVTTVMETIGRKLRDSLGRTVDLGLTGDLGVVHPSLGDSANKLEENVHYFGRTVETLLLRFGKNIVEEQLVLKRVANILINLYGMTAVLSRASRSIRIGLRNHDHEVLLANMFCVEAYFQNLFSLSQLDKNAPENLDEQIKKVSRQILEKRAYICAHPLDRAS
Summary of the method: as §1

T1 sequence (Q3U1J4 whole entry): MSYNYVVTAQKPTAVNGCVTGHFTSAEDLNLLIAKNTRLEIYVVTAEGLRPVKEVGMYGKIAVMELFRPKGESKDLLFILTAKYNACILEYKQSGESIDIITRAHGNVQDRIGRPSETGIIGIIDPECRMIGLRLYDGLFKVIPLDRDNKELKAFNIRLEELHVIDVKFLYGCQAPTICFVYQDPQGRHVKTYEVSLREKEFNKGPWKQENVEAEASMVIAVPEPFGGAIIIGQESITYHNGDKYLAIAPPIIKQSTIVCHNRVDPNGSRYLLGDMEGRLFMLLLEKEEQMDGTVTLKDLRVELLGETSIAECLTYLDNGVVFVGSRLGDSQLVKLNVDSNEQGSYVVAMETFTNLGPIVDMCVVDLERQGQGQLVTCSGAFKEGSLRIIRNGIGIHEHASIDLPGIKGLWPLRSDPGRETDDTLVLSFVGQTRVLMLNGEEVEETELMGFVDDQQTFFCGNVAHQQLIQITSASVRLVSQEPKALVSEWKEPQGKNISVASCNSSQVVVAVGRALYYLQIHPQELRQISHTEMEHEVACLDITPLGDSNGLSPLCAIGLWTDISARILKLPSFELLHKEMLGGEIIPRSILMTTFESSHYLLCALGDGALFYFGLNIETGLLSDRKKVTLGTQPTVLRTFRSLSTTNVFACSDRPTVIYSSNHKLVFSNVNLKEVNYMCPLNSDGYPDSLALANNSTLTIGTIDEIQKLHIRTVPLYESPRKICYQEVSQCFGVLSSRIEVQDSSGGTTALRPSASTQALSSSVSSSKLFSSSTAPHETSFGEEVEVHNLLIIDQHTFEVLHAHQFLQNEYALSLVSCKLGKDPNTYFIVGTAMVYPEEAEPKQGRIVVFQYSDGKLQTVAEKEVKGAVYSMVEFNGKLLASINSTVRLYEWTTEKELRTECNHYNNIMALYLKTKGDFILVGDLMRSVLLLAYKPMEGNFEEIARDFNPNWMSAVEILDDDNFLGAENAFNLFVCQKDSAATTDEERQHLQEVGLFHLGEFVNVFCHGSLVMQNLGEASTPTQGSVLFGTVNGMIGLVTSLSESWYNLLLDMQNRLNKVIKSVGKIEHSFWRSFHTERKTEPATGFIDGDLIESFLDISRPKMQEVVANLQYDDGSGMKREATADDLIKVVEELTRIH

adipsin
TMT signal-to-noise ratio [1]: 426.44 | TMT signal-to-noise ratio [2]: 101.527 | TMT signal-to-noise ratio [3]: 160.416 | TMT signal-to-noise ratio [4]: 127.125
